Experimental data: US20100004429A1

Biological target: human thrombopoietin receptor (human c-Mpl) (human) (UniProt P40238)
Assay: cell-based or functional assay

UT7/TPO (Max): 100%
Substance: PEG-rHuMGDF (pegylated recombinant human megakaryocyte proliferation and development factor) (from UniProt P40225 22-184) (ligand)
